Reference: article PMC10836093, “Ensemble-based design of tau to inhibit aggregation while preserving biological activity” (Research Square, 2024)

Target: the molecule itself
Assay: ThT fluorescence aggregation assay; peptide alone, 50-800 μM in 1X PBS pH 7.4, 1 mM DTT, 25 μM ThT, 37 °C, no inducer; self-assembly into amyloid fibrils, t1/2max from fitted curves

Protein | t1/2max of ThT aggregation at 800 μM [h] | t1/2max of ThT aggregation at 100 μM [h]
Ac-KDNIKHVPGGGSVQIVYK-NH2 (also called 4R-derived peptide; source: synthetic peptide (Genscript, >95% purity), disaggregated in TFA) [WT R2R3_(294-311) peptide] | 46 ± 13 | 
Ac-KDNIKHVSGGGSVQIVYK-NH2 (also called mutant 4R fragment; source: synthetic peptide (Genscript, >95% purity), disaggregated in TFA) [P301S R2R3_(294-311) peptide] | 7.5 ± 1 | 52 ± 14
